We go through two molecules from patent EP4696711A1 (Jiangsu Hengrui Pharmaceuticals Co., Ltd., dated 2024).

The target of this assay is T1, Cynomolgus MUC1 his (Cat. # MU1-C52H5, Acro) (cynomolgus).
T1 construct: His-tagged, bought; also called Cyno MUC1-His
Description: SPR (Biacore T200), antibody captured on Protein A. (In SPR one partner is held on a chip, and binding of the other changes the refractive index at the surface.)

B1: M4-H1L1 (antibody, human IgG1, kappa)
heavy: not shown
light: DIQMTQSPSSLSASVGDRVTITCSASSSVFNMNWYQQKPGKSPKLWIYDISKLASGVPSRFSGSGSGTDFTLTISSLQPEDFATYYCQQRSFYPPTFGGGTKVEIKRTVAAPSVFIFPPSDEQLKSGTASVVCLLNNFYPREAKVQWKVDNALQSGNSQESVTEQDSKDSTYSLSSTLTLSKADYEKHKVYACEVTHQGLSSPVTKSFNRGEC
notes: humanized IgG1/kappa
What is called Kd is a measure of binding affinity in units of concentration. A higher Kd goes with lower affinity. In the case of B1, the Kd is 18.9 nM.

B2: M4H1L1-ZalH4 (bispecific antibody, human IgG1, kappa)
heavy: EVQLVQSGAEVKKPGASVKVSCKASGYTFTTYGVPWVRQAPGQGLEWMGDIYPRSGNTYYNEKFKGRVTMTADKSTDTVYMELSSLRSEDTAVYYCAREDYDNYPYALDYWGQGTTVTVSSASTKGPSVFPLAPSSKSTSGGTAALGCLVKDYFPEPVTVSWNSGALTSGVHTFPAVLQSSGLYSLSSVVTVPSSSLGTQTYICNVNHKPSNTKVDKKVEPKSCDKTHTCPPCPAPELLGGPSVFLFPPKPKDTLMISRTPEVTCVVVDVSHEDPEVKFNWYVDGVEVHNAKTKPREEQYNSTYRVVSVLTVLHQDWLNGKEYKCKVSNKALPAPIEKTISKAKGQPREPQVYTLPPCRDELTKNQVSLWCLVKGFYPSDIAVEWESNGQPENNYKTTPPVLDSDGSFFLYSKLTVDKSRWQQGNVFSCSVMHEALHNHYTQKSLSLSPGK
light: DIQMTQSPSSLSASVGDRVTITCSASSSVFNMNWYQQKPGKSPKLWIYDISKLASGVPSRFSGSGSGTDFTLTISSLQPEDFATYYCQQRSFYPPTFGGGTKVEIKRTVAAPSVFIFPPSDEQLKSGTASVVCLLNNFYPREAKVQWKVDNALQSGNSQESVTEQDSKDSTYSLSSTLTLSKADYEKHKVYACEVTHQGLSSPVTKSFNRGEC
chain 1: not shown
chain 2: DIQLTQSPSSLSASVGDRVTITCRASQDISSALVWYQQKPGKAPKLLIYDASSLESGVPSRFSGSESGTDFTLTISSLQPEDFATYYCQQFNSYPLTFGGGTKVEIKGGGGSSGAPRFLTRPKASVVSVGKDATLSCQIVGNPFPQVSWEKDKQPVTAGVRFRLAQDGDLYRLKILDLQLSDSGQYVCRARNAHGEAFACLGLQVDAEA
With B2, the Kd turned out to be 17.8 nM.
